# Data published in patent US20190185562A1 (Regeneron, published 2019).
# T1: full length (FL) human gp130 over-expressed on HEK293/Stat3-luc/gp130-2X Sort cells (human, UniProt P40189 23-918)
# T1 construct: whole, on cells
# T1 sequence (looked up): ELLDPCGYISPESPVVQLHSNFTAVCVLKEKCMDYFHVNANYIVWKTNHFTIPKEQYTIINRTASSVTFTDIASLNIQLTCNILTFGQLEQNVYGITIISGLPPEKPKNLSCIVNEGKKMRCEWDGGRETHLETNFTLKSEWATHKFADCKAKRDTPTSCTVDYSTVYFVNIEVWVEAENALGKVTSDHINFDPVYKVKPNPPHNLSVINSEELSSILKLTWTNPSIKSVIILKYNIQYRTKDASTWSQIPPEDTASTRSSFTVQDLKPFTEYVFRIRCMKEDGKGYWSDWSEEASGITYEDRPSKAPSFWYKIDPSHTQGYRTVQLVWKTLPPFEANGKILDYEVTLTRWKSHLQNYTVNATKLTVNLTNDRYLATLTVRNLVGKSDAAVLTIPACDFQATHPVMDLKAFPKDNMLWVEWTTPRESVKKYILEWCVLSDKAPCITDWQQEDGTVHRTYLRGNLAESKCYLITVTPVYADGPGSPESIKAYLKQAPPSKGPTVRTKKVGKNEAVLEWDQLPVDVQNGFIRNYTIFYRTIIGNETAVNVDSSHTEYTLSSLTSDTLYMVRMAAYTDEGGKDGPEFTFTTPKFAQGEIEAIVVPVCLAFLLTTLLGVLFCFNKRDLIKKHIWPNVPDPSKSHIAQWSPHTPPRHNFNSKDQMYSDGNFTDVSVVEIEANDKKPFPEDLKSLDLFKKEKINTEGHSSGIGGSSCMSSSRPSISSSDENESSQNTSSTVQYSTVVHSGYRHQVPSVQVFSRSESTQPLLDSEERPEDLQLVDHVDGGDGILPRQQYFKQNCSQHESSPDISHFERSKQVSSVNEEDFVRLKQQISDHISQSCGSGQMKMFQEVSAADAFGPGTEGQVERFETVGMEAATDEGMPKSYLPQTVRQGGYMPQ
# T2: human gp130 expressed endogenously on IMR-32/Stat3-luc cells (human, UniProt P40189 23-918)
# T2 construct: whole, on cells
# T2 sequence (looked up): T1 sequence (looked up)
# B1: MAb16636 (antibody, V domains shown)
# VH: QLQLQESGPGLVKPSETLSLICTVSGGSISSNNYYWGWIRQPPGKGLEWIGNLYGSGSTYYNPSLKSRVTISVDTSKNQFSLKLSFVTAADTAVYHCARWDTNGGAFDIWGQGTMVTVSS
# VL: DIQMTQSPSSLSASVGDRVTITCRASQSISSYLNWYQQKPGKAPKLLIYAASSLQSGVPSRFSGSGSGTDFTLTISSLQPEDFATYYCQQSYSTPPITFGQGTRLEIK
# notes: Variable domains only
# B2: MAb16618 (antibody, V domains shown)
# VH: QVQLQESGPGLVKPSETLSLTCTVSGGSISNYYWTWIRQPPGKGLEWIGHISNSGTTNYNPSLKSRVTISVDTSKNQFSLKLTSVTAADTAVYYCARLPLGIAAVDTDYYYYFGMDVWGQGTTVTVSS
# VL: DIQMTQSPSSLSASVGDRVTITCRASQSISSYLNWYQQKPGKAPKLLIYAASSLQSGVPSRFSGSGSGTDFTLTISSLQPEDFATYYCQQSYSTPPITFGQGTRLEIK
# notes: Variable domains only
# B3: MAb16637 (antibody, V domains shown)
# VH: QVQLVQSGAEVKKPGASVKVSCKASGYTFTSLGISWVRQAPGQGLEWMGWISAYSGNRDYAQKFQGRVTMTTDTSTSTAYMELRSLRSDDTAVYYCARSLRFDYWGQGTLVTVSS
# VL: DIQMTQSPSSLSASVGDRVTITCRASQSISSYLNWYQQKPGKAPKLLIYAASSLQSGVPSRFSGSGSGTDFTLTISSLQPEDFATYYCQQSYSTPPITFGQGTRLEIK
# notes: Variable domains only
# B4: MAb16676 (antibody, V domains shown)
# VH: QVQLVQSGAEVMKPGASVKVSCRASGYTFSSYDINWVRQAPGQGLEWMGWISTATGNTNYPQKVQGRVTMTTDTSTNTAYMELRSLRSDDTAVYYCTREGNSKGWLDPWGQGTLVTVSS
# VL: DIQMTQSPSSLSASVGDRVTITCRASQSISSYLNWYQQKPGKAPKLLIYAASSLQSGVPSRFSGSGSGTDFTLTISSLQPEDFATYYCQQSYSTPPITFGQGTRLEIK
# notes: Variable domains only
# B5: MAb16656 (antibody, V domains shown)
# VH: EVQLVESGGGLVQPGRSLRLSCAASGFTLDDFAMHWVRQAPGKGLEWVSGISWNSGNIGYADSVKGRFTISRDNARNSLYLQMNSLRAEDTALYYCTSGYYLYYAMDVWGQGTTVTVSS
# VL: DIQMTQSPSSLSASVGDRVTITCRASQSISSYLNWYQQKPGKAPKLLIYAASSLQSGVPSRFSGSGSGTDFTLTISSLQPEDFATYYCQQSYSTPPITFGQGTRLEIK
# notes: Variable domains only
# B6: MAb16662 (antibody, V domains shown)
# VH: EVQLVESGGGLVQPGGSLRLSCTASGFTFSNYAIFWVRQAPGKGLEYVSGISNNGVTKYYADSVRDRFTISRDNSRNTVSIQMDSLRTEDMAVYYCARENWGSDDGFDIWGQGTMVTVSS
# VL: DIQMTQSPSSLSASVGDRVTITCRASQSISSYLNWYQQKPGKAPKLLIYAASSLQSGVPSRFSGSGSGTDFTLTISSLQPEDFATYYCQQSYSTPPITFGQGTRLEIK
# notes: Variable domains only
# B7: MAb16614 (antibody, V domains shown)
# VH: QVQLVESGGGVVQPGGSLRLSCAASGFTFSTYDIHWVRQAPGKGLEWVAVISFDGSNRNYGDSVKGRFTISRDNSDNTLFLEMNNLRFEDTAVYYCAKEGYGVDFQHWGQGTLVTVSS
# VL: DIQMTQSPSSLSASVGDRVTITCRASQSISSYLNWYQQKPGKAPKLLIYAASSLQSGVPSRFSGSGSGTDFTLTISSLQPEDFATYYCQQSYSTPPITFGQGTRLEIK
# notes: Variable domains only
# B8: MAb16683 (antibody, V domains shown)
# VH: QVQLVESGGGLVKPGGSLRLSCAASGFTFSDYYMTWIRQTPGKGLDWVSYISSSGTNKYNADSVKGRFTISRDNAKNSLYLQMNSLRAEDTAVYYCVRDPPWGMDVWGQGTTVTVSS
# VL: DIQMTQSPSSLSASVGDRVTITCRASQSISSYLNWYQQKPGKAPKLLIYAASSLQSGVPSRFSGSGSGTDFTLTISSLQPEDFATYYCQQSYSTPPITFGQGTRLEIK
# notes: Variable domains only
# B9: MAb16623 (antibody, V domains shown)
# VH: EVQLVESGGGLVQPGGSLRLSCAASGLTFSSYEMNWVRQAPGKGLEWVSHISSAGSTKYYADSVKGRFTISRDNAKNSLFLQMNSLRAEDTAIYYCAGYNYAYYYFGVDVWGQGTTVTVSS
# VL: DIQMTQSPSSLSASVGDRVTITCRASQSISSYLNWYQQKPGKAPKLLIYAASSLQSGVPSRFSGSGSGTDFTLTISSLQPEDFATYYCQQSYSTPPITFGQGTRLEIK
# notes: Variable domains only
# B10: MAb16664 (antibody, V domains shown)
# VH: QVQLVQSGTEVKKPGSSVKVSCKASGGTFSTYPINWVRQAPGQGLEWMGGIIPIFGTASYAQKFQGRVAITTDESTSTAYMELNSLRSEDTAVYYCARERPNWGSNDYWGQGTLVTVSS
# VL: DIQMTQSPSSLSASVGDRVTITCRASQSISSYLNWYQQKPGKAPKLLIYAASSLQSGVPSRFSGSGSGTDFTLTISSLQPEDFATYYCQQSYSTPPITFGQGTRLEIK
# notes: Variable domains only
# B11: MAb16673 (antibody, V domains shown)
# VH: EVQLVQSGAEVKKPGESLKISCKGSGYSFTSYWIDWVRQMPGKGLEWMGIIYPDDSDTRYSPSFQGQVTMSVDKSISTAYLQWSSLKASDTAIYYCARHERGIVEAGTDYYYYYGMDVWGQGTTVTVSS
# VL: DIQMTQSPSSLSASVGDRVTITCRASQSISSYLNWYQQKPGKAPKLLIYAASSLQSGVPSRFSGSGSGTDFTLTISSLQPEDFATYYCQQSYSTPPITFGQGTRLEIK
# notes: Variable domains only
# B12: MAb16665 (antibody, V domains shown)
# VH: QVQLVESGGGVVQPGRSLRLACAASGFTFRSYGMHWVRQAPGKGLEWVAVIWYDGSNKYYTDSVKGRFTISRDNSKNTLYLQMNSLRAEDTAMYYCAIDKWATVTTYLFDYWGQGTLVTVSS
# VL: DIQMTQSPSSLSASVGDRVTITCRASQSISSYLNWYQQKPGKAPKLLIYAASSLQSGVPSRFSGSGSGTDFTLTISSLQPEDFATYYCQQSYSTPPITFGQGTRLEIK
# notes: Variable domains only
# B13: MAb16622 (antibody, V domains shown)
# VH: EVQLVESGGGVVRPGGSLRLSCTASGFTFDDYGMSWVRQAPGKGLEWVSGINWNGGRTEYADAVKGRFIISRDNAKNSLYLQMNSLRAEDTALYFCARTELRWDYWGQGTLVTVSS
# VL: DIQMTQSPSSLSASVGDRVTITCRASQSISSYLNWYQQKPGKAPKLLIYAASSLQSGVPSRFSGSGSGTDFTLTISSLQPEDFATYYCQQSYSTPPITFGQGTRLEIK
# notes: Variable domains only
# B14: MAb16669 (antibody, V domains shown)
# VH: EVQLVESGGGLVQPGGSLRLSCAASGFTFSSYAMNWVRQAPGKGLEWVSAISGSGDSTYYTDSVKGRFTISRDNSKNTLYLQMNTLRAEDTAVYYCAKEEIVMLVGATPGWFDPWGQGTLVTVSS
# VL: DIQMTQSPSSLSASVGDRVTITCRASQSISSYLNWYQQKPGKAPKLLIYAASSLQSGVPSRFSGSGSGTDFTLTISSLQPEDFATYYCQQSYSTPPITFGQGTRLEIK
# notes: Variable domains only
# B15: MAb16659 (antibody, V domains shown)
# VH: QVQLVQSGPEVKKPGSSVKVSCKASGGTIDRNEITWVRQAPGQGLEWMGVIIPILGEAHYERKFQGRLTITMDESTSTAYMELSNLRSEDTAVYYCARERAARGYLDYWGQGTLVTVSS
# VL: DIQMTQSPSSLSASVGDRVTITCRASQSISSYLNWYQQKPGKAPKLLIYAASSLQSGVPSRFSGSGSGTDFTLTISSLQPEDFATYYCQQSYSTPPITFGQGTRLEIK
# notes: Variable domains only
# B16: MAb16682 (antibody, V domains shown)
# VH: EVQLVESGGGLVQPGGSLRLSCAASGFTFSTYWMNWVRQAPGKGLEWVANIKEDGSEKYYVDSVKGRFTISRDNAKNSLYLQMNSLRAEDTAVYYCAREGFGVVTYIWGQGTMVTVSS
# VL: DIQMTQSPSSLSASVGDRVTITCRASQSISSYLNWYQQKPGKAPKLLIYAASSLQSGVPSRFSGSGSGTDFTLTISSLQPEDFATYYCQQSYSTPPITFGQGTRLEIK
# notes: Variable domains only
# Target: T1, full length (FL) human gp130 …
# Test: FACS, 10 nM mAb, 293/Stat3-luc/GP130 2X sort cells
# Source text: (§1) In order to assess cell binding by anti-GP130 antibodies of the invention two cell lines were generated. One cell line generated was HEK293 cells stably over-expressing full length (FL) human gp130 (amino acids 1-918 of accession # P40189 with leucine at position 2 changed to valine, a natural variant) along with a luciferase reporter (Stat3-luciferase, Stat3-luc, SA Bioscience, #CLS-6028L). The cells were sorted twice using flow cytometry for high expression of gp130. It is known hereafter as HEK293/Stat3-luc/gp130-2X Sort. IMR-32 cells (human Neuroblastoma, ATCC), were also evaluated for cell binding as these cells express gp130 endogenously and were used for bioassays. The cells used for binding were generated to stably express a luciferase reporter (Stat3-luciferase, Stat3-luc, SA Bioscience, #CLS-6028L), and are referred to hereafter as IMR-32/STAT3-Luc cells.
# (§2) For the FACS analysis, 10 nM of the antibodies were used to stain 0.5×10^6 cells/well of each cell type at 4° C. in PBS (without calcium and magnesium) containing 2% FBS for 30 minutes. IMR-32/STAT3-luc cells were incubated with 1 mg/mL mouse IgG for 30 minutes at 4° C. to block Fc receptors prior to adding the antibodies. To test whether the anti-gp130 antibody binding is specific for gp130 on the IMR-32 cells, antibodies were added to IMR-32/Stat3-luc cells with or without being pre-bound to 1000 nM of recombinant protein of the ecto-domain of human gp130 fused to myc-myc-his tag (hgp130.mmh) for 30 minutes at 25° C. […] Cells were fixed using BD CytoFix™ (Becton Dickinson, #554655) and analyzed on an IQue® (Intellicyt®) Flow Cytometer. Unstained and secondary antibody alone controls were also tested for all cell lines. The results were analyzed using ForeCyt® (IntelliCyt®) software to determine the geometric means of fluorescence for viable cells.
row,MFI - Normalized to Unstained Control,Binder
1,92,B1
2,105,B2
3,121,B3
4,74,B4
5,132,B5
6,49,B6
7,94,B7
8,75,B8
9,96,B9
10,45,B10
11,107,B11
12,55,B12
13,91,B13
14,53,B14
15,81,B15
16,80,B16

# Target: T2, human gp130 expressed endogenously on …
# Test: FACS, 10 nM mAb, IMR-32/Stat3-luc cells, no hGP130.mmh
# Source text: as §1, §2
row,MFI - Normalized to Unstained Control,Binder
1,8,B1
2,7,B2
3,9,B3
4,9,B4
5,12,B5
6,5,B6
7,7,B7
8,9,B8
9,8,B9
10,7,B10
11,10,B11
12,5,B12
13,5,B13
14,6,B14
15,8,B15
16,6,B16

# Target: T2, human gp130 expressed endogenously on …
# Test: FACS, 10 nM mAb, IMR-32/Stat3-luc cells, competitor 1 uM hGP130.mmh
# Source text: as §1, §2
row,MFI - Normalized to Unstained Control,Binder
1,7,B1
2,8,B2
3,7,B3
4,8,B4
5,7,B5
6,6,B6
7,6,B7
8,7,B8
9,7,B9
10,8,B10
11,7,B11
12,6,B12
13,7,B13
14,5,B14
15,8,B15
16,8,B16
